In experiment [1] the target is human insulin (human) (UniProt P01308). The experiment can be described thus: SPR (Biacore 3000), multi-cycle, insulin titrated over amine-coupled Trap, steady-state affinity model, n=4. In general terms: Surface plasmon resonance follows binding to a sensor surface in real time, without labels.
In the next experiment the target is human IGF-2 (human) (UniProt P01344). The experiment can be described thus: SPR, multi-cycle, Trap flowed over amine-coupled ligand, 1:1 kinetic model, n=4.
Sequence of human IGF-2 (human) (P01344 25-91 limits assumed): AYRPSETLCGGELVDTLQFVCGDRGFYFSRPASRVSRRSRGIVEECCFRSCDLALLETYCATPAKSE
A further experiment has as its target mouse IGF-1 (mouse) (UniProt P05017). The experiment is described as above.
Experiment [2] concerns the target ligand-immobilized surfaces (hIGF-I, mIGF-I and hIGF-II). As to the kind of experiment: SPR, multi-cycle, Trap flowed over ligand-immobilized surfaces; ligand not named.
In experiment [3] the target is human insulin (human) (UniProt P01308). As to the kind of experiment: SPR (Biacore 3000), multi-cycle, insulin titrated over amine-coupled Trap, steady-state affinity model, n=4; insulin titrated over immobilized Trap B; steady-state affinity model; n = 4.

Sequence of human insulin (human) (P01308 25-54 limits assumed, chain 1 of 2): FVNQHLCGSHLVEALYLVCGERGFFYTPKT
Sequence of human insulin (human) (P01308 90-110 limits assumed, chain 2 of 2): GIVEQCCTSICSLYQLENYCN
Sequence of mouse IGF-1 (mouse) (P05017 49-118 limits assumed): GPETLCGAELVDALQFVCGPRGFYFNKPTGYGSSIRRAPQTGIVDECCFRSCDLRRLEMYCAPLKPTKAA

Take “Trap D: h-sIGF1R, purified from CHO cells by calcium hydroxyapatite (CHT) column followed by gel filtration (GF) (from UniProt P08069 31-935) (receptor)”: the Kd in the experiment with human insulin (human) [1] worked out at 16 µM; in the experiment with human IGF-2 (human), 0.016 µM; with mouse IGF-1 (mouse), 0.01 µM.

In experiment [2], “Trap G: h-sIGF1R-Fc, purified from CHO cells using protein A, pH 3.5 elution (Fc fusion)” showed a koff of 0.00015 s⁻¹.

In turn, “Trap B: His-tagged h-sIGF1R purified from 293 cells (from UniProt P08069 31-935) (receptor)” registered a Kd with human insulin (human) [3] of 10 µM. Regarding “Trap F: h-sIGF1R-Fc, purified from CHO cells using protein A, pH 4.0 elution (Fc fusion)”, in experiment [2], the koff amounted to 0.00043 s⁻¹.

In general, Kd refers to the free concentration of one partner at which half of the binding sites on the other are occupied at equilibrium, for simple one-to-one binding. Read a high Kd as lower affinity. As usually defined, the koff is the first-order rate constant of dissociation. Lower therefore signals a long-lived complex.

The values above are taken from patent US20150044209A1.
